Experimental data published in patent publication US20250163183A1 (COAGULANT THERAPEUTICS, published 2025).
Changes are numbered by the printed parent chain. “And” between values parts separate entries of the source, which are not always exact repeats. Equal entries are not always repeated. Values belong to the binder of their own block, whether it stands above or below them.

What was measured:
[1] = molecular target: T1, human activated protein C (APC) (human, UniProt P04070 43-461); experiment: cell-based or functional assay
T1 sequence (P04070 other isoform, or with tags, fused parts or gaps): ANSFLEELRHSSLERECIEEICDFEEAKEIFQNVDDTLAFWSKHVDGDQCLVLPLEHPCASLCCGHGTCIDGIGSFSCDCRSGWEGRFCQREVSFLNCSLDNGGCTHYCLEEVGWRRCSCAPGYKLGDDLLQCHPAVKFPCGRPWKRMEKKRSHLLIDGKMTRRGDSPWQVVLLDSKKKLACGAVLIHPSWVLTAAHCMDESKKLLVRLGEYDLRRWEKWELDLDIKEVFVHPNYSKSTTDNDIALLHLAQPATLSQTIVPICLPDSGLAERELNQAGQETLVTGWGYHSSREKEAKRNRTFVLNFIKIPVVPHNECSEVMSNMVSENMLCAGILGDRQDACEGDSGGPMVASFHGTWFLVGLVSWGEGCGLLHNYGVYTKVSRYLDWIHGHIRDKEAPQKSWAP

[2] = molecular target: T2, human protein C (PC) zymogen (human, UniProt P04070 43-197; P04070 200-461); experiment: ELISA screen, PC-coated wells, OD450, n=2
T2 construct: Bought
T2 sequence (P04070 43-197, chain 1 of 2): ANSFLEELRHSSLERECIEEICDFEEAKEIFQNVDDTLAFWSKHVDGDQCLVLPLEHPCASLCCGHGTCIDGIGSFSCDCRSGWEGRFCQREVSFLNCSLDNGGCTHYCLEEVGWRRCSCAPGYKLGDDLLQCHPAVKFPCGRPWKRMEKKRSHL
T2 sequence (P04070 200-461, chain 2 of 2): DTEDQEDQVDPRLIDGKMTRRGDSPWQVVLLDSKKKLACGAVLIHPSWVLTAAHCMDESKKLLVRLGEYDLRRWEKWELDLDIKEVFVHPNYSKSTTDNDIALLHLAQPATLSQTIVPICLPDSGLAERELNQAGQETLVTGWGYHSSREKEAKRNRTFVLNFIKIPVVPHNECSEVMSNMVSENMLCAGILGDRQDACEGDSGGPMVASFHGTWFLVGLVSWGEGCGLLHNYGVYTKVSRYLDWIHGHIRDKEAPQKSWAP

[3] = molecular target: T3, FXIa (UniProt P03951 19-625); experiment: ELISA, FXIa coated at 10 µg/mL, HRP-anti-V5, n=3
T3 construct: also called factor XIa
T3 sequence (P03951 19-625 limits assumed): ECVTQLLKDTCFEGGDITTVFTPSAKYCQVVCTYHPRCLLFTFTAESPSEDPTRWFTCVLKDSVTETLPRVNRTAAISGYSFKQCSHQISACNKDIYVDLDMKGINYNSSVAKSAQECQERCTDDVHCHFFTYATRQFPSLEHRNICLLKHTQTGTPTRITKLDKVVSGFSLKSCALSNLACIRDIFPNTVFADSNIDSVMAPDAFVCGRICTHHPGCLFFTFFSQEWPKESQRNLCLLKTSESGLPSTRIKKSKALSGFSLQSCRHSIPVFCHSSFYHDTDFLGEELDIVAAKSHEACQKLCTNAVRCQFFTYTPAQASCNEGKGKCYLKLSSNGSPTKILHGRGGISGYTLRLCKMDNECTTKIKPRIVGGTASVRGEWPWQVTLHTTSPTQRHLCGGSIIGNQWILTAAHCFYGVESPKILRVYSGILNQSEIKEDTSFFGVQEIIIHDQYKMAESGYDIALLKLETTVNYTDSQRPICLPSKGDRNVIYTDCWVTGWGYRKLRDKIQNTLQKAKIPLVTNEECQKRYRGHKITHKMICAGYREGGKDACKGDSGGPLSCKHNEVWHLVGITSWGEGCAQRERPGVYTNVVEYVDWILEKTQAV

[4] = molecular target: T1, human activated protein C (APC); experiment: BLI (Octet): nanobody captured on anti-V5 sensor, dipped in 500 nM APC; buffer sensor reads 0.06
[5] = molecular target: T1, human activated protein C (APC); experiment: cell-based or functional assay; remark: listed apart in the source
[6] = molecular target: T4, FVIIa (UniProt P08709 61-466); experiment: ELISA, FVIIa coated at 10 µg/mL, HRP-anti-V5, n=3
T4 construct: also called factor VIIa
T4 sequence (looked up): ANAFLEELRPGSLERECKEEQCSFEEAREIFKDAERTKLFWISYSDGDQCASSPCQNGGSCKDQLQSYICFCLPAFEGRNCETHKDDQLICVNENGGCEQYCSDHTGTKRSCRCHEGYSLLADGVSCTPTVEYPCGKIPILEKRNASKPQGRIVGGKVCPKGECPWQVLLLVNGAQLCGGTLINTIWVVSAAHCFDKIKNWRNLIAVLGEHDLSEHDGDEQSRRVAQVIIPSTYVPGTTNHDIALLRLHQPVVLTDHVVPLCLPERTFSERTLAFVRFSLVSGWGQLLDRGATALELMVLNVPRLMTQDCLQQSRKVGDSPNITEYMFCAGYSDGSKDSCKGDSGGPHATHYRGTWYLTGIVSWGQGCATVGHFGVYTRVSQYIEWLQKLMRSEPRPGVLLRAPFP

[7] = molecular target: T1, human activated protein C (APC); experiment: BLI; end tied to LP2 by Table 5; lower end of the kon range; LP2
[8] = molecular target: T1, human activated protein C (APC); experiment: BLI, VHH captured via anti-V5, APC in solution
[9] = molecular target: T2, human protein C (PC) zymogen; experiment: ELISA screen, PC-coated wells, OD450, n=2 [Continued]
[10] = molecular target: T2, human protein C (PC) zymogen; experiment: as above; remark: listed apart in the source
[11] = molecular target: T2, human protein C (PC) zymogen; experiment: ELISA
[12] = molecular target: T1, human activated protein C (APC); experiment: BLI (Octet), nanobody captured, 5 APC concentrations, 1:1 model; written in place of a bar

B1: LP2 (SR16983-R2-P3-H10) (VHH, not shown: small tags and cut ends)
VHH: QVQLVESGGGLVQAGGSLRLSCAASGRPISAYTWAWFRQAPGKEREFVAAITSSAGTTYYADSVRGRFTISRDNAENTVYLRMNTLKPEDTAVYYCAADDQGDNWYDHWGQGTQVTVSS
notes: Llama VHH purified from E. coli periplasm
APC plasma T1/2 (min; mean) [1]: 38.2 min
binding result [2]: no binding
binding result [3]: no binding (tested: 2 µg/mL)
APC binding (nm) [4]: 0.29 nm
APC-mediated histone H3 cleavage, 500 nM nanobody [5]: < 75 % residual activity
Protac-APTT clotting time, 300 nM nanobody [5]: > 90%
binding result [6]: no binding (tested: 2 µg/mL)
kon [7]: 126000 M⁻¹ s⁻¹
Kd [8]: 8.8 nM
koff [8]: 0.0011 s⁻¹
kon [8]: 130000 M⁻¹ s⁻¹

B2: LP13 (SR16983-R3-P3-G08) (VHH, not shown: small tags and cut ends)
VHH: QLQLVESGGGLVQAGGSLRLSCVASGTTFTIEDIGWHRQAPGKQLELVAVSRGGGNADYSDSVKGRFTISRDNAKTTVYLQMSSLKPEDTAVYYCIAKTKATTKWGRGIQVTVSS
notes: as for B1
APC plasma T1/2 (min; mean) [1]: 67.1 min
binding result [3]: no binding (tested: 2 µg/mL)
binding result [9]: no binding
APC binding (nm) [4]: 0.32 nm
APC-mediated histone H3 cleavage, 500 nM nanobody [5]: < 75 % residual activity
binding result [6]: no binding (tested: 2 µg/mL)
Kd [8]: 1.2 nM
koff [8]: 0.00041 s⁻¹
kon [8]: 350000 M⁻¹ s⁻¹

B4: LP20 (SR16983-R4-P1-B07) (VHH, not shown: small tags and cut ends)
VHH: QLQLVESGGGLVQAGGSLRLSCTASGSTVRVTAGGWYRQTPGNERELVADIDNGGSTTYADSVKGRFTISRDNAKNAVDLQMNSLKPEDTAVYRCFVIAIPDSAPRPRAYWGQGTEVTVSS
notes: as for B1
APC plasma T1/2 (min; mean) [1]: 85.6 min
binding result [3]: no binding (tested: 2 µg/mL)
binding result [9]: no binding
APC binding (nm) [4]: 0.3 nm
Protac-APTT clotting time, 300 nM nanobody [5]: > 90%
binding result [6]: no binding (tested: 2 µg/mL)
Kd [8]: 1.9 nM
koff [8]: 0.0007 s⁻¹
kon [8]: 380000 M⁻¹ s⁻¹

B10: LP3 (SR16983-R2-P4-E09) (VHH, not shown: small tags and cut ends)
VHH: QVQLVESGGGLVQPGGSLTLSCAASGTIESINDMGWYRQAPGKQRELVAAITSGGSTNYADSVKGRFTISRDNAKNTVYLQMNSLKPEDTAVYYCNAEVKRHYYYDSAGYRYWGQGTQVTVSS
notes: as for B1
APC plasma T1/2 (min; mean) [1]: 28.8 min
binding result [3]: no binding (tested: 2 µg/mL)
binding result [9]: no binding
APC binding (nm) [4]: 0.29 nm
binding result [6]: no binding (tested: 2 µg/mL)
Kd [8]: 8.8 nM
koff [8]: 0.0016 s⁻¹
kon [8]: 180000 M⁻¹ s⁻¹

B11: LP9 (SR16983-R3-P3-B05) (VHH, not shown: small tags and cut ends)
VHH: EVQLVESGGGLVQAGGSLRLSCAASGRTFVGSYVMGWFRQAPGKEREFVAASSRSTGNTVYLDSVKGRFTVSRDDAKNTLYLQMNSLKTEDTAVYYCATRASINYNAATWPYWGQGTQVTVSS
notes: as for B1
APC plasma T1/2 (min; mean) [1]: 27.7 min
binding result [3]: no binding (tested: 2 µg/mL)
binding result [9]: no binding
APC binding (nm) [4]: 0.33 nm
Protac-APTT clotting time, 300 nM nanobody [5]: > 90%
binding result [6]: no binding (tested: 2 µg/mL)
Kd [12]: < 0.01 nM
Kd [8]: 0.003 nM
koff [8]: 6.3e-07 s⁻¹
kon [8]: 210000 M⁻¹ s⁻¹

B12: LP11 (SR16983-R3-P3-F03) (VHH, not shown: small tags and cut ends)
VHH: B11 VHH with E1Q, V2L, V12A, V71I, Y81F, S86R, T89P, I103V, A107Y, T109A
notes: Llama VHH purified from E. coli periplasm; also made in CHO cells for the endothelial barrier assay
APC plasma T1/2 (min; mean) [1]: 25 min
binding result [3]: no binding (tested: 2 µg/mL)
binding result [9]: no binding
APC binding (nm) [4]: 0.3 nm
Protac-APTT clotting time, 300 nM nanobody [5]: > 90%
R46/R41 cleavage ratio of PAR1 by APC [5]: > 1 ratio and ≤ 2.5 fold
binding result [6]: no binding (tested: 2 µg/mL)
Kd [8]: 2.1 nM
koff [8]: 0.00069 s⁻¹
kon [8]: 330000 M⁻¹ s⁻¹

More lines, in order of falling Kd [8], values ahead:

APC plasma T1/2 (min; mean) [1]: 36.4 min
binding result [3]: no binding (tested: 2 µg/mL)
APC binding (nm) [4]: 0.31 nm
binding result [6]: no binding (tested: 2 µg/mL)
binding result [11]: no binding
Kd [8]: 16 nM
koff [8]: 0.0066 s⁻¹
kon [8]: 400000 M⁻¹ s⁻¹
B9: LP15 (SR16983-R3-P5-H05) (VHH, not shown: small tags and cut ends)
VHH: QLQLVESGGGLVQAGGSLRLSCAASGTTFSFVYMGWYRQAPGNQRDLVARISSDGSTNYADSVKGRFTISGDNAKNTVYLQMNSLKPEDTARYYCFWNGHTNKWGQGTQVTVSS
notes: as for B1

APC plasma T1/2 (min; mean) [1]: 33.9 min
binding result [3]: no binding (tested: 2 µg/mL)
APC binding (nm) [4]: 0.34 nm
APC-mediated histone H3 cleavage, 500 nM nanobody [5]: < 75 % residual activity
binding result [6]: no binding (tested: 2 µg/mL)
binding result [10]: no binding
Kd [8]: 9.4 nM
koff [8]: 0.0041 s⁻¹
kon [8]: 440000 M⁻¹ s⁻¹
B7: LP7 (SR16983-R3-P2-H08) (VHH, not shown: small tags and cut ends)
VHH: EVQLVESGGGLVQAGGSLRLSCAASGTTFDMNSMGWYRQGPGFKRELVATISMGGDTNYADSVKGRFTISRANAKNTVYMQMNSLKPEDTAVYYCNAERIWPNRRTFWGQGTQVTVSS
notes: as for B1

binding result [2]: no binding
binding result [3]: no binding (tested: 2 µg/mL)
APC binding (nm) [4]: 0.31 nm
APC-mediated histone H3 cleavage, 500 nM nanobody [5]: < 75 % residual activity
binding result [6]: no binding (tested: 2 µg/mL)
Kd [8]: 6.1 nM
koff [8]: 0.0025 s⁻¹
kon [8]: 410000 M⁻¹ s⁻¹
B3: LP19 (SR16983-R4-P1-B06) (VHH, not shown: small tags and cut ends)
VHH: QLQLVESGGGEVQAGESLRLSCAASGSTFSINVFAWYRDYPGKQRELVAVIGRSGTPRYADSVKGRFTISRDNAKNTVYLQMNSLEPEDTAVYYCHLGDTWGQGTQVTVSS
notes: as for B1

APC plasma T1/2 (min; mean) [1]: 16.1 min
binding result [3]: no binding (tested: 2 µg/mL)
APC binding (nm) [4]: 0.29 nm
R46/R41 cleavage ratio of PAR1 by APC [5]: > 1 ratio
binding result [6]: no binding (tested: 2 µg/mL)
binding result [10]: no binding
Kd [8]: 4.5 nM
koff [8]: 0.0011 s⁻¹
kon [8]: 240000 M⁻¹ s⁻¹
B5: LP18 (SR16983-R4-P1-A11) (VHH, not shown: small tags and cut ends)
VHH: QLQLVESGGGLVQPGGSLRLSCAASGFTFSTKWMYWVRQGPGKGLERVAAIDAGGTSTYYADSVKGRFTISRDNSENTVYLQMNSLESADTAVYYCARSEGGLFRGRGTQVTVSA
notes: as for B1

APC plasma T1/2 (min; mean) [1]: 29.3 min
binding result [3]: no binding (tested: 2 µg/mL)
APC binding (nm) [4]: 0.29 nm
APC-mediated histone H3 cleavage, 500 nM nanobody [5]: < 75 % residual activity
binding result [6]: no binding (tested: 2 µg/mL)
binding result [11]: no binding
Kd [8]: 4.5 nM
koff [8]: 0.0011 s⁻¹
kon [8]: 230000 M⁻¹ s⁻¹
B6: LP10 (SR16983-R3-P3-E06) (VHH, not shown: small tags and cut ends)
VHH: QVQLVESGGGLVQAGGSLRLSCAASGTIESINDMGWYRQAPGKQRELVATVSSSGMTNYADSAKGRFTISRDNAKNTMYLQMNSLKPEDTAVYYCKAHISRSYYYDSLGYDYWGQGTQVTVSS
notes: as for B1

APC plasma T1/2 (min; mean) [1]: 33 min
binding result [3]: no binding (tested: 2 µg/mL)
binding result [9]: no binding
APC binding (nm) [4]: 0.33 nm
binding result [6]: no binding (tested: 2 µg/mL)
Kd [8]: 4.4 nM
koff [8]: 0.0027 s⁻¹
kon [8]: 550000 M⁻¹ s⁻¹
B8: LP4 (SR16983-R3-P2-A06) (VHH, not shown: small tags and cut ends)
VHH: QLQLVESGGGLVQAGGSLRLSCAASGSTFNFRIMGWYRQVPGKQRELVAVINSGGSADYTEDVKGRFTISRDDAKSTMYLQMNSLKPEDTAVYYCHAKKVEPTLFTTTYWGQGTQVTVSS
notes: as for B1
